Measured values: article PMC7954794 (2021)

B1: S. cerevisiae Abp1 (full length; SH3 domain 535-592 mutated) / Hua2 (parent complex)
chain 1: MALEPIDYTTHSREIDAEYLKIVRGSDPDTTWLIISPNAKKEYEPESTGSSFHDFLQLFDETKVQYGLARVSPPGSDVEKIIIIGWCPDSAPLKTRASFAANFAAVANNLFKGYHVQVTARDEDDLDENELLMKISNAAGARYSIQTSSKQQGKASTPPVKKSFTPSKSPAPVSKKEPVKTPSPAPAAKISSRVNDNNDDDDWNEPELKERDFDQAPLKPNQSSYKPIGKIDLQKVIAEEKAKEDPRLVQKPTAAGSKIDPSSDIANLKNESKLKRDSEFNSFLGTTKPPSMTESSLKNDDDKVIKGFRNEKSPAQLWAERKAKQNSGNAETKAEAPKPEVPEDEPEGEPDVKDLKSKFEGLAASEKEEEEMENKFAPPPKKSEPTIISPKPFSKPQEPVKAEEAEQPKTDYKKIGNPLPGMHIEADNEEEPEENDDDWDDDEDEAAQPPLPSRNVASGAPVQKEEPEQEEIAPSLPSRNSIPAPKQEEAPEQAPEEEIEEEAEEAAPQLPSRSSAAPPPPPRRATPEKKPKENPWATAEYDYDAAEDNELTFVENDKIINIEFVDDDWWLGELEKDGSKGLFPSNYVSLGN
chain 2: MQQTKFGKMYLDHDSVVEYSEDEIVEADRITLGYKKRLSMIENQMRHLLEDFSLDVQQIEPILADLQKYYDAFLQLLQKRNKSLQCKRSTHQPVPSPMNSQTSTNAKVNLSGKLMKFQLNSVQKFDEENILRILQNKIEFEHYFQIDKGKKQKVLLLAVYQCLNGPTRLHKVLNIEGIIHNNSIRTILGKQVSSSKWTVFLYDVKLVLLAHRQDVPNLETSKMIVRYGDLFPCALYFKDHTAY

Variants of: B1
Assay: DHFR protein-fragment complementation in yeast (Abp1-DHFR F[1,2] x partner-DHFR F[3]), deep mutational scanning, second methotrexate selection vs reference; S. cerevisiae, DHFR-PCA selection in liquid with methotrexate at 30 C, two 72 h selections (the score uses the second); reference = the pre-selection culture

| screen value | Variant |
| --- | --- |
| -2.9 DMS score: mean over two replicates of log2(f_test/f_ref + 0.5)/ln 2, minus the synonymous-codon median (not a log2 … | chain 1 V565K |
| 0.907 DMS score: mean over two replicates of log2(f_test/f_ref + 0.5)/ln 2, minus the synonymous-codon median (not a log2 … | chain 1 V565C |
| -0.833 DMS score: mean over two replicates of log2(f_test/f_ref + 0.5)/ln 2, minus the synonymous-codon median (not a log2 … | chain 1 V565S |
| -1.44 DMS score: mean over two replicates of log2(f_test/f_ref + 0.5)/ln 2, minus the synonymous-codon median (not a log2 … | chain 1 L582I |
| 0.141 DMS score: mean over two replicates of log2(f_test/f_ref + 0.5)/ln 2, minus the synonymous-codon median (not a log2 … | chain 1 L582W |
| -1.77 DMS score: mean over two replicates of log2(f_test/f_ref + 0.5)/ln 2, minus the synonymous-codon median (not a log2 … | chain 1 L582R |
| 0.0251 DMS score: mean over two replicates of log2(f_test/f_ref + 0.5)/ln 2, minus the synonymous-codon median (not a log2 … | chain 1 D542E |
| 0.23 DMS score: mean over two replicates of log2(f_test/f_ref + 0.5)/ln 2, minus the synonymous-codon median (not a log2 … | chain 1 D542C |
| 0.327 DMS score: mean over two replicates of log2(f_test/f_ref + 0.5)/ln 2, minus the synonymous-codon median (not a log2 … | chain 1 D542A |
| 0.905 DMS score: mean over two replicates of log2(f_test/f_ref + 0.5)/ln 2, minus the synonymous-codon median (not a log2 … | chain 1 D542P |
| 0.585 DMS score: mean over two replicates of log2(f_test/f_ref + 0.5)/ln 2, minus the synonymous-codon median (not a log2 … | chain 1 E555I |
| 0.724 DMS score: mean over two replicates of log2(f_test/f_ref + 0.5)/ln 2, minus the synonymous-codon median (not a log2 … | chain 1 E555S |
| -0.509 DMS score: mean over two replicates of log2(f_test/f_ref + 0.5)/ln 2, minus the synonymous-codon median (not a log2 … | chain 1 E555H |
| -1 DMS score: mean over two replicates of log2(f_test/f_ref + 0.5)/ln 2, minus the synonymous-codon median (not a log2 … | chain 1 E555D |
| -0.256 DMS score: mean over two replicates of log2(f_test/f_ref + 0.5)/ln 2, minus the synonymous-codon median (not a log2 … | chain 1 E555G |
| 0.193 DMS score: mean over two replicates of log2(f_test/f_ref + 0.5)/ln 2, minus the synonymous-codon median (not a log2 … | chain 1 E555R |
| -0.276 DMS score: mean over two replicates of log2(f_test/f_ref + 0.5)/ln 2, minus the synonymous-codon median (not a log2 … | chain 1 E555N |
| -0.538 DMS score: mean over two replicates of log2(f_test/f_ref + 0.5)/ln 2, minus the synonymous-codon median (not a log2 … | chain 1 W536Q |
| -0.564 DMS score: mean over two replicates of log2(f_test/f_ref + 0.5)/ln 2, minus the synonymous-codon median (not a log2 … | chain 1 W536S |
| -0.302 DMS score: mean over two replicates of log2(f_test/f_ref + 0.5)/ln 2, minus the synonymous-codon median (not a log2 … | chain 1 W536F |
| 0.0348 DMS score: mean over two replicates of log2(f_test/f_ref + 0.5)/ln 2, minus the synonymous-codon median (not a log2 … | chain 1 W536Y |
| -0.062 DMS score: mean over two replicates of log2(f_test/f_ref + 0.5)/ln 2, minus the synonymous-codon median (not a log2 … | chain 1 W536T |
| -0.449 DMS score: mean over two replicates of log2(f_test/f_ref + 0.5)/ln 2, minus the synonymous-codon median (not a log2 … | chain 1 W536C |
| -0.0963 DMS score: mean over two replicates of log2(f_test/f_ref + 0.5)/ln 2, minus the synonymous-codon median (not a log2 … | chain 1 I559L |
| -0.169 DMS score: mean over two replicates of log2(f_test/f_ref + 0.5)/ln 2, minus the synonymous-codon median (not a log2 … | chain 1 N556K |

| screen value | Variant |
| --- | --- |
| 0.415 DMS score: mean over two replicates of log2(f_test/f_ref + 0.5)/ln 2, minus the synonymous-codon median (not a log2 … | chain 1 N556S |
| -0.361 DMS score: mean over two replicates of log2(f_test/f_ref + 0.5)/ln 2, minus the synonymous-codon median (not a log2 … | chain 1 N556A |
| 0.313 DMS score: mean over two replicates of log2(f_test/f_ref + 0.5)/ln 2, minus the synonymous-codon median (not a log2 … | chain 1 N556Y |
| 0.175 DMS score: mean over two replicates of log2(f_test/f_ref + 0.5)/ln 2, minus the synonymous-codon median (not a log2 … | chain 1 N556D |
| -2.17 DMS score: mean over two replicates of log2(f_test/f_ref + 0.5)/ln 2, minus the synonymous-codon median (not a log2 … | chain 1 E550Q |
| 0.0744 DMS score: mean over two replicates of log2(f_test/f_ref + 0.5)/ln 2, minus the synonymous-codon median (not a log2 … | chain 1 T538F |
| -0.259 DMS score: mean over two replicates of log2(f_test/f_ref + 0.5)/ln 2, minus the synonymous-codon median (not a log2 … | chain 1 T538Q |
| -0.596 DMS score: mean over two replicates of log2(f_test/f_ref + 0.5)/ln 2, minus the synonymous-codon median (not a log2 … | chain 1 T538S |
| -0.61 DMS score: mean over two replicates of log2(f_test/f_ref + 0.5)/ln 2, minus the synonymous-codon median (not a log2 … | chain 1 T538E |
| 0.283 DMS score: mean over two replicates of log2(f_test/f_ref + 0.5)/ln 2, minus the synonymous-codon median (not a log2 … | chain 1 T538M |
| -2.94 DMS score: mean over two replicates of log2(f_test/f_ref + 0.5)/ln 2, minus the synonymous-codon median (not a log2 … | chain 1 D566Q |
| -2.34 DMS score: mean over two replicates of log2(f_test/f_ref + 0.5)/ln 2, minus the synonymous-codon median (not a log2 … | chain 1 D566K |
| -2.64 DMS score: mean over two replicates of log2(f_test/f_ref + 0.5)/ln 2, minus the synonymous-codon median (not a log2 … | chain 1 D566A |
| -0.177 DMS score: mean over two replicates of log2(f_test/f_ref + 0.5)/ln 2, minus the synonymous-codon median (not a log2 … | chain 1 L571C |
| 1.04 DMS score: mean over two replicates of log2(f_test/f_ref + 0.5)/ln 2, minus the synonymous-codon median (not a log2 … | chain 1 L571E |
| -1.06 DMS score: mean over two replicates of log2(f_test/f_ref + 0.5)/ln 2, minus the synonymous-codon median (not a log2 … | chain 1 L571R |
| 0.614 DMS score: mean over two replicates of log2(f_test/f_ref + 0.5)/ln 2, minus the synonymous-codon median (not a log2 … | chain 1 L571F |
| -0.576 DMS score: mean over two replicates of log2(f_test/f_ref + 0.5)/ln 2, minus the synonymous-codon median (not a log2 … | chain 1 L571D |
| -1.57 DMS score: mean over two replicates of log2(f_test/f_ref + 0.5)/ln 2, minus the synonymous-codon median (not a log2 … | chain 1 E563I |
| -0.477 DMS score: mean over two replicates of log2(f_test/f_ref + 0.5)/ln 2, minus the synonymous-codon median (not a log2 … | chain 1 E563V |
| -0.992 DMS score: mean over two replicates of log2(f_test/f_ref + 0.5)/ln 2, minus the synonymous-codon median (not a log2 … | chain 1 E563C |
| -0.847 DMS score: mean over two replicates of log2(f_test/f_ref + 0.5)/ln 2, minus the synonymous-codon median (not a log2 … | chain 1 K558S |
| -2.79 DMS score: mean over two replicates of log2(f_test/f_ref + 0.5)/ln 2, minus the synonymous-codon median (not a log2 … | chain 1 S585H |
| 1.11 DMS score: mean over two replicates of log2(f_test/f_ref + 0.5)/ln 2, minus the synonymous-codon median (not a log2 … | chain 1 S585A |
| -2.89 DMS score: mean over two replicates of log2(f_test/f_ref + 0.5)/ln 2, minus the synonymous-codon median (not a log2 … | chain 1 S585K |

| screen value | Variant |
| --- | --- |
| -0.716 DMS score: mean over two replicates of log2(f_test/f_ref + 0.5)/ln 2, minus the synonymous-codon median (not a log2 … | chain 1 S585V |
| -1.55 DMS score: mean over two replicates of log2(f_test/f_ref + 0.5)/ln 2, minus the synonymous-codon median (not a log2 … | chain 1 S585R |
| 0.129 DMS score: mean over two replicates of log2(f_test/f_ref + 0.5)/ln 2, minus the synonymous-codon median (not a log2 … | chain 1 P535L |
| -0.124 DMS score: mean over two replicates of log2(f_test/f_ref + 0.5)/ln 2, minus the synonymous-codon median (not a log2 … | chain 1 P535H |
| 0.611 DMS score: mean over two replicates of log2(f_test/f_ref + 0.5)/ln 2, minus the synonymous-codon median (not a log2 … | chain 1 P535T |
| 1.23 DMS score: mean over two replicates of log2(f_test/f_ref + 0.5)/ln 2, minus the synonymous-codon median (not a log2 … | chain 1 P535A |
| -0.44 DMS score: mean over two replicates of log2(f_test/f_ref + 0.5)/ln 2, minus the synonymous-codon median (not a log2 … | chain 1 P535K |
| 1.56 DMS score: mean over two replicates of log2(f_test/f_ref + 0.5)/ln 2, minus the synonymous-codon median (not a log2 … | chain 1 P535I |
| 0.0703 DMS score: mean over two replicates of log2(f_test/f_ref + 0.5)/ln 2, minus the synonymous-codon median (not a log2 … | chain 1 P535R |
| -0.103 DMS score: mean over two replicates of log2(f_test/f_ref + 0.5)/ln 2, minus the synonymous-codon median (not a log2 … | chain 1 A545R |
| -0.621 DMS score: mean over two replicates of log2(f_test/f_ref + 0.5)/ln 2, minus the synonymous-codon median (not a log2 … | chain 1 A545C |
| -0.0243 DMS score: mean over two replicates of log2(f_test/f_ref + 0.5)/ln 2, minus the synonymous-codon median (not a log2 … | chain 1 A545T |
| 0.224 DMS score: mean over two replicates of log2(f_test/f_ref + 0.5)/ln 2, minus the synonymous-codon median (not a log2 … | chain 1 A545K |
| 0.0984 DMS score: mean over two replicates of log2(f_test/f_ref + 0.5)/ln 2, minus the synonymous-codon median (not a log2 … | chain 1 A545S |
| -0.988 DMS score: mean over two replicates of log2(f_test/f_ref + 0.5)/ln 2, minus the synonymous-codon median (not a log2 … | chain 1 S579V |
| -1.02 DMS score: mean over two replicates of log2(f_test/f_ref + 0.5)/ln 2, minus the synonymous-codon median (not a log2 … | chain 1 T552R |
| -0.173 DMS score: mean over two replicates of log2(f_test/f_ref + 0.5)/ln 2, minus the synonymous-codon median (not a log2 … | chain 1 T552A |
| 0.223 DMS score: mean over two replicates of log2(f_test/f_ref + 0.5)/ln 2, minus the synonymous-codon median (not a log2 … | chain 1 E575A |
| -0.328 DMS score: mean over two replicates of log2(f_test/f_ref + 0.5)/ln 2, minus the synonymous-codon median (not a log2 … | chain 1 E575I |
| 0.336 DMS score: mean over two replicates of log2(f_test/f_ref + 0.5)/ln 2, minus the synonymous-codon median (not a log2 … | chain 1 E575Q |
| -0.317 DMS score: mean over two replicates of log2(f_test/f_ref + 0.5)/ln 2, minus the synonymous-codon median (not a log2 … | chain 1 E575V |
| -0.949 DMS score: mean over two replicates of log2(f_test/f_ref + 0.5)/ln 2, minus the synonymous-codon median (not a log2 … | chain 1 E575W |
| -0.913 DMS score: mean over two replicates of log2(f_test/f_ref + 0.5)/ln 2, minus the synonymous-codon median (not a log2 … | chain 1 N561K |
| -0.211 DMS score: mean over two replicates of log2(f_test/f_ref + 0.5)/ln 2, minus the synonymous-codon median (not a log2 … | chain 1 N561D |
